Tested on: hCD32a-H131, hCD32a-R131, hCD32b, hCD16a-V158, hCD64
Assay: Fortebio Octet BLI binding of protein A-captured antibodies to FcgR analytes
Set-up: species or system human
Settings: expression supernatants
Experimental: The binding of antibodies to Fc gamma receptors (FcγRs or FcgRs) was studied using biosensor technologies including Biacore surface plasmon resonance (SPR) and Fortebio Biolayer Interferometry (BLI). SPR studies were performed on a Biacore T100 instrument (GE Healthcare) at 25° C. The Fab fragment from a murine anti-6×His antibody was immobilized on a CM5 sensor chip using EDC/NHS to a density of ˜3000 RU. Various his-tagged FcgRs (7 ug/ml) were captured via the C-terminal his-tag using a contact time of 30 s at 10 ul/min, and the binding of 1.0 μM antibody was evaluated in a running buffer of 10 mM NaPO4, 130 mM NaCl, 0.05% p20 (PBS-T) pH 7.1. FcgRs used for these experiments included CD64 (FcgRI), CD32a-H131 (FcgRIIa-H131), CD32a-R131 (FcgRIIa-R131), CD32b (FcgRIIb), CD16a-V158 (FcgRIIIa-V158), CD16b-NA1 (FcgRIIIb-NA1), and CD16B-NA2 (FcgRIIIb-NA2). BLI experiments were performed on a Fortebio Octet RED instrument (Pall, Fortebio) at 25° C. in 10 mM NaPO4, 130 mM NaCl, 0.05% p20 (PBS-T) pH 7.1. Antibodies were captured out of undiluted expression supernatants on protein A coated sensors, followed by the binding of 1 μM hCD32a-H131, hCD32a-R131, hCD32b, hCD16a-V158, or 0.1 μM hCD64 analytes.
The next set of constructs was used to engineer effector function into the otherwise effector function negative IgG2 isotype. […]

- FcgR binding profile by BLI (in words): appreciable binding to only CD32a-H131
B1: IgG2.3: antibody with IgG2 constant region with C219S (protein)
constant: ASTKGPSVFPLAPCSRSTSESTAALGCLVKDYFPEPVTVSWNSGALTSGVHTFPAVLQSSGLYSLSSVVTVPSSNFGTQTYTCNVDHKPSNTKVDKTVERKSCVECPPCPAPPVAGPSVFLFPPKPKDTLMISRTPEVTCVVVDVSHEDPEVQFNWYVDGVEVHNAKTKPREEQFNSTFRVVSVLTVVHQDWLNGKEYKCKVSNKGLPAPIEKTISKTKGQPREPQVYTLPPSREEMTKNQVSLTCLVKGFYPSDIAVEWESNGQPENNYKTTPPMLDSDGSFFLYSKLTVDKSRWQQGNVFSCSVMHEALHNHYTQKSLSLSPGK
modifications: left off: another chain or arm of the molecule
notes: antibody with IgG2 constant region with C219S

— patent US10100129B2, “Antibodies against CD73 and uses thereof” (BRISTOL-MYERS SQUIBB COMPANY, priority 2014, dated 2018)
